The assay concerns the target T1, recombinant mouse HEXB (beta-subunit of beta-hexosaminidase) (mouse, UniProt P20060 32-536).
T1 sequence (looked up): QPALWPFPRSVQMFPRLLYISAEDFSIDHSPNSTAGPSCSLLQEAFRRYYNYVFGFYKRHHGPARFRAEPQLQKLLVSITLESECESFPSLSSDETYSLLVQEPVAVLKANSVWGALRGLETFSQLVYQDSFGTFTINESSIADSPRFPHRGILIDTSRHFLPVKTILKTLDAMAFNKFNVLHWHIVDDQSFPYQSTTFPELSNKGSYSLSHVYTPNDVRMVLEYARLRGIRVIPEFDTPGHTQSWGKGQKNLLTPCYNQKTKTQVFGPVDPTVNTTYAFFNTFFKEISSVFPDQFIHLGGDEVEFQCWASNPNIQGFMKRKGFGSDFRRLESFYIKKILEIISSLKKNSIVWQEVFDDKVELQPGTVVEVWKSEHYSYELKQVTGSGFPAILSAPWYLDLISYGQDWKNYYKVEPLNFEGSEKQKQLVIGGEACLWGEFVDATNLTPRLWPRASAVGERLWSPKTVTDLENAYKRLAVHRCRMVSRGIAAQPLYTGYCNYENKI
In words: binding to a coated plate, bound protein read by HexA enzymatic activity.

B1: mouse-Transferrin-G-CSF-HEXA (mTr-G-CSF-HEXA) (other)
chain: HAIYPRHGSVPLVTVSALPPSLPLPRSFLLKSLEQVRKIQASGSVLLEQLCATYKLCHPEELVLLGHSLGIPKASLSGCSSQALQQTQCLSQLHSGLCLYQGLLQALSGISPALAPTLDLLQLDVANFATTIWQQMENLGVAPTVQPTQSAMPAFTSAFQRRAGGVLAISYLQGFLETARLALHHLAGSGSDRVYIHPFHLGSGSGGSGGSGGSGSGGSGSGGSGGSGLWPWPQYIQTYHRRYTLYPNNFQFRYHVSSAAQAGCVVLDEAFRRYRNLLFGSGSWPRPSFSNKQQTLGKNILVVSVVTAECNEFPNLESVENYTLTINDDQCLLASETVWGALRGLETFSQLVWKSAEGTFFINKTKIKDFPRFPHRGVLLDTSRHYLPLSSILDTLDVMAYNKFNVFHWHLVDDSSFPYESFTFPELTRKGSFNPVTHIYTAQDVKEVIEYARLRGIRVLAEFDTPGHTLSWGPGAPGLLTPCYSGSHLSGTFGPVNPSLNSTYDFMSTLFLEISSVFPDFYLHLGGDEVDFTCWKSNPNIQAFMKKKGFTDFKQLESFYIQTLLDIVSDYDKGYVVWQEVFDNKVKVRPDTIIQVWREEMPVEYMLEMQDITRAGFRALLSAPWYLNRVKYGPDWKDMYKVEPLAFHGTPEQKALVIGGEACMWGEYVDSTNLVPRLWPRAGAVAERLWSSNLTTNIDFAFKRLSHFRCELVRRGIQAQPISVGYCEQEFEQT
Usually Kd stands for the free concentration of one partner at which half of the binding sites on the other are occupied at equilibrium, for simple one-to-one binding. Consider B1, for which the Kd is 0.166 µM.

Source of the values: publication PMC11357852 (Molecular Therapy. Methods & Clinical Development, 2024).
